Measured values reported in US20190315845A1 (ANNEXON, published 2019).

Columns and labels:
human C1q [1] = target: T1, human C1q (human, UniProt P02745 23-245; P02746 28-253; P02747 29-245); assay: SPR Biacore T200, 1:1 model; Fab immobilised (ligand), hC1q analyte
T1 construct: Purified human C1q protein (plate-coated in ELISA, ligand or analyte in SPR, in human serum in CH50); also called hC1q; complement factor C1q

mouse C1q [2] = target: T2, mouse C1q (mouse, UniProt P98086 23-245; P14106 26-253; Q02105 30-246); assay: SPR Biacore T200, 1:1 model; Fab immobilised (ligand), mC1q analyte; analysis 1
T2 construct: Purified mouse C1q protein; also called mC1q

mouse C1q [3] = target: T2, mouse C1q; assay: SPR Biacore T200, 1:1 model; Fab immobilised (ligand), mC1q analyte; analysis 2
mouse C1q [4] = target: T2, mouse C1q; assay: SPR Biacore T200, 1:1 model; mC1q immobilised (ligand), Fab analyte; analysis 1
mouse C1q [5] = target: T2, mouse C1q; assay: SPR Biacore T200, 1:1 model; mC1q immobilised (ligand), Fab analyte; analysis 2
Protocol: (§1) Due to concerns about stability, two chips were prepared; one with hC1q and mC1q (Chip All) as ligands and one with IgG and Fab (Chip A13) as ligands Immobilization for m/h C1q was carried out at a protein concentration of 5 μg/ml in 10 mM acetate buffer pH 5.5, whereas immobilization for IgG and Fab was carried out at a protein concentration of 0.5-2 μg/ml in 10 mM acetate buffer pH 5.0, both on a CMS Series S sensor chip (Biacore).
(§2) Both C1q complexes were immobilized based on concerns over avidity (i.e., two immobilized antibodies binding C1q), and the very high levels of NSB observed using mC1q and to a lesser extent hC1q to the CM5 surface (charge mediated estimated C1q: pI 8-9). Single cycle kinetics (SCK) were used initially to derive estimated kinetic constants due to uncertainty over the stability of the C1q complex and the regeneration conditions. Full kinetic analysis was performed after SCK. The ligand stability control injections performed during the kinetic run indicated either the regeneration conditions used were inactivating the ligand, or the ligand itself was unstable at 25° C. during the 48 hours required for kinetic analysis.
(§3) The association phase was monitored for 500 seconds to allow some of the higher concentrations of analyte to reach steady state. In order to observe a sufficient signal decrease (>10%) during the dissociation phase of the kinetic cycle, dissociation was measured for up to 10,800 seconds to allow sufficient dissociation to occur for accurate assessment of the kinetics. The signal from the reference channel Fₑ1 was subtracted from that of Fₑ2, Fₑ3, and Fₑ4.

human C1q [6] = target: T1, human C1q; assay: SPR Biacore T200, heterogeneous ligand model, KD1; hC1q immobilised (ligand), Fab analyte
Protocol: as §1
(§4) The kinetic parameters for both the IgG and Fab interactions with hC1q were in the low picomolar range (Table 6 for 1-to-1 model and Table 7 for the heterogeneous model). In order to avoid avidity, hC1q was initially used as the ligand, however this limited the analysis to single cycle kinetics and the use of more complex models, for example, heterogeneous ligand binding models (Equation 3), that may represent the different forms of hC1q structure that were associated with chemical coupling of a multi-subunit protein to a surface. When hC1q was used as the analyte both IgG and Fab were immobilized at the lowest concentrations possible to avoid avidity. The data was analyzed using a 1-to-1 model and a more complex bivalent analyte model (Equation 4). […] It should be noted that the dissociation rate was too slow to measure accurately with this technique. […]

human C1q [7] = target: T1, human C1q; assay: SPR Biacore T200, heterogeneous ligand model, KD2; hC1q immobilised (ligand), Fab analyte
Protocol: as §1, §4

human C1q [8] = target: T1, human C1q; assay: SPR Biacore T200, heterogeneous ligand model, ka1; hC1q immobilised (ligand), Fab analyte
Protocol: as §1, §4

human C1q [9] = target: T1, human C1q; assay: SPR Biacore T200, heterogeneous ligand model, ka2; hC1q immobilised (ligand), Fab analyte
Protocol: as §1, §4

human C1q [10] = target: T1, human C1q; assay: SPR Biacore T200, heterogeneous ligand model, kd1; hC1q immobilised (ligand), Fab analyte
human C1q [11] = target: T1, human C1q; assay: SPR Biacore T200, heterogeneous ligand model, kd2; hC1q immobilised (ligand), Fab analyte
Protocol: as §1, §4

human C1q [12] = target: T1, human C1q; assay: SPR Biacore T200, 1:1 model, single cycle kinetics; hC1q immobilised (ligand), Fab analyte
mouse C1q [13] = target: T2, mouse C1q; assay: SPR Biacore T200, 1:1 model; Fab immobilised (ligand), mC1q analyte; mean of 2 independent analyses
Protocol: as §1, §3

mouse C1q [14] = target: T2, mouse C1q; assay: SPR Biacore T200, 1:1 model; mC1q immobilised (ligand), Fab analyte; mean of 2 independent analyses
Protocol: as §1, §2, §3

T1 sequence (P02745 23-245 limits assumed, chain 1 of 3): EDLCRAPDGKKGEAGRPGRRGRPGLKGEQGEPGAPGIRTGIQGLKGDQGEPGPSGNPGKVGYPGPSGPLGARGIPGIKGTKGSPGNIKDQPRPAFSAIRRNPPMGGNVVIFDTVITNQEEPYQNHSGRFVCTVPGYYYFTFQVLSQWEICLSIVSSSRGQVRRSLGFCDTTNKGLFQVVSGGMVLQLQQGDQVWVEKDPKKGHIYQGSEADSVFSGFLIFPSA
T1 sequence (P02746 28-253 limits assumed, chain 2 of 3): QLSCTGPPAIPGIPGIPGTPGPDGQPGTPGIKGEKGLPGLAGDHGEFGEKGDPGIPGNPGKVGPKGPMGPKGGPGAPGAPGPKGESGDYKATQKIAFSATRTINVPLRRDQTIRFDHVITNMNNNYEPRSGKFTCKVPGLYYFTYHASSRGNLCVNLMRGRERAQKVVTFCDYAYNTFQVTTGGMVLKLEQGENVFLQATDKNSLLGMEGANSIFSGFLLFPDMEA
T1 sequence (P02747 29-245 limits assumed, chain 3 of 3): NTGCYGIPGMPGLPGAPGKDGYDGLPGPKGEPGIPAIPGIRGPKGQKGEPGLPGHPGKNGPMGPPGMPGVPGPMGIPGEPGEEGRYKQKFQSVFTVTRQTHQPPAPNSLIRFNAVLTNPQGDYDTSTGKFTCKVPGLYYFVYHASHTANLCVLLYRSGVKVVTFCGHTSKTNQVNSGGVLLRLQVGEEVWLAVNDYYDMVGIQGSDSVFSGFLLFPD
T2 sequence (P98086 23-245 limits assumed, chain 1 of 3): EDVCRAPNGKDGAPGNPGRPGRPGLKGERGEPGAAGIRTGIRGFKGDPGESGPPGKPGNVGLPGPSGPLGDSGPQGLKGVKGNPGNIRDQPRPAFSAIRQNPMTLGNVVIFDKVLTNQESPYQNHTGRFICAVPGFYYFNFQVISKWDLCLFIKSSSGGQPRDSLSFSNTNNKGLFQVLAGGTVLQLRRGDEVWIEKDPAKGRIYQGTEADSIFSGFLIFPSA
T2 sequence (P14106 26-253 limits assumed, chain 2 of 3): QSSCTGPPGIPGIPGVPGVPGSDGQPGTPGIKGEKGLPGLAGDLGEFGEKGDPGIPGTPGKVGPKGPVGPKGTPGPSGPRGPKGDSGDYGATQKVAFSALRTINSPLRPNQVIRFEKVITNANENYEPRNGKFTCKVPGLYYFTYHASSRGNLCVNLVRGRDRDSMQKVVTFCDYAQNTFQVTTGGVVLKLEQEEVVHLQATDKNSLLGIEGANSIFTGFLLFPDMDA
T2 sequence (Q02105 30-246 limits assumed, chain 3 of 3): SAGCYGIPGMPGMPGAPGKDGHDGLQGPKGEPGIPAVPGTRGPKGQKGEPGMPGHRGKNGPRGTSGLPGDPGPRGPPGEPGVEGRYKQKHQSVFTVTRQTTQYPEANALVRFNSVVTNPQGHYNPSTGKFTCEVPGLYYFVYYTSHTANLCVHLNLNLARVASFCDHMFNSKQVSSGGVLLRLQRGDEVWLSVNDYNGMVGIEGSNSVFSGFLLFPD

Kd (human C1q [1]): 0.0086 nM | koff (human C1q [1]): 9.1e-06 s⁻¹ | kon (human C1q [1]): 1.1e+06 M⁻¹ s⁻¹ | Kd (mouse C1q [2]): 126 nM | koff (mouse C1q [2]): 0.056 s⁻¹ | kon (mouse C1q [2]): 450000 M⁻¹ s⁻¹ | Kd (mouse C1q [3]): 121 nM | Kd (mouse C1q [4]): 748 nM | koff (mouse C1q [4]): 0.0046 s⁻¹ | kon (mouse C1q [4]): 6230 M⁻¹ s⁻¹ | Kd (mouse C1q [5]): 607 nM | koff (mouse C1q [5]): 0.0041 s⁻¹ | kon (mouse C1q [5]): 6900 M⁻¹ s⁻¹ | Kd (human C1q [6]): 175 nM | Kd (human C1q [7]): 3.4 nM | kon (human C1q [8]): 130000 M⁻¹ s⁻¹ | kon (human C1q [9]): 18000 M⁻¹ s⁻¹ | koff (human C1q [10]): 2.3e-05 s⁻¹ | koff (human C1q [11]): 6.3e-08 s⁻¹ | Kd (human C1q [12]): < 0.192 nM | koff (human C1q [12]): < 1e-05 s⁻¹ | kon (human C1q [12]): 52000 M⁻¹ s⁻¹ | Kd (mouse C1q [13]): 123 nM | koff (mouse C1q [13]): 0.032 s⁻¹ | kon (mouse C1q [13]): 310000 M⁻¹ s⁻¹ | Kd (mouse C1q [14]): 677 nM | koff (mouse C1q [14]): 0.0043 s⁻¹ | kon (mouse C1q [14]): 6500 M⁻¹ s⁻¹
B1: Fab fragment of humanized anti-C1q antibody VH3/Vκ3 (Fab)
heavy: QVQLVQSGAELKKPGASVKVSCKSSGYHFTSYWMHWVKQAPGQGLEWIGVIHPNSGSINYNEKFESRVTITVDKSTSTAYMELSSLRSEDTAVYYCAGERDSTEVLPMDYWGQGTTVTVSS
light: DVQITQSPSSLSASLGERATINCRASKSINKYLAWYQQKPGKAPKLLIYSGSTLQSGIPARFSGSGSGTDFTLTISSLEPEDFAMYYCQQHNEYPLTFGQGTKLEIK
notes: also called Fab VH3/Vκ3; Fab-VH3/Vκ3; not shown: CH1 part of the human IgG4 (S241P L248E) constant region left after digestion of the IgG with a Fab Micro Preparation Ki; human kappa light chain constant region
